Data: publication PMC7333360

Key:
Conditions in all cases: glycan lost; control: wild-type mice
[1] = breeding homozygous knock-in mice with WT
[2] = TAB1 IP and immunoblot, brain tissue
[3] = body weight at three months, n=6 per genotype
[4] = heterozygous crosses, observation of homozygous knock-in mice
[5] = heart weight per g body weight, three months

B1: TAB1 (TGF-β activated kinase-1 binding protein-1): S393A (protein)
parent chain: MAAQRRSLLQSEQQPSWTDDLPLCHLSGVGSASNRSYSADGKGTESHPPEDNWLKFRSENNCFLYGVFNGYDGNRVTNFVAQRLSAELLLGQLNTEHTEADVRRVLLQAFDVVERSFLESIDDALAEKASLQSQLPEGVPQHQLPPQYQKILERLKALEREISGGAMAVVAVLLNSKLYVANVGTNRALLCKSTVDGLQVTQLNMDHTTENEDELFRLSQLGLDAGKIKQMGVICGQESTRRIGDYKVKYGYTDIDLLSAAKSKPIIAEPEIHGAQPLDGVTGFLVLMSEGLYKALEAAHGPGQANQEIAAMIDTEFAKQTSLDAVAQAVVDRVKRIHSDTFASGGERAKFCPRHEDMTLLVRNFGYPLGEMSQPTPTPAPGGRVYPVSVPYSSAQSTSKTSVTLSLVMPSQGQMVNGSHSASTLDEATPTLTNQSPTLTLQSTNTHTQSSSSSSDGGLFRSRPAHSLPPGEDGRVEPYVDFAEFYRLWSVDHGEQSVMTAP
no change: other: fertility [1] | expression_or_secretion [2] | other: body weight [3] | other: mouse viability and development [4] | other: heart weight [5]
